Consider 1 substance from article PMC7939477.

The experiment addresses PdGH110B (GH110 family α-1,3-galactosidase from Pseudoalteromonas distincta U2A) (Pseudoalteromonas distincta U2A). Kind of experiment: dynamic light scattering; PdGH110B in solution at protein concentrations of 0.18, 0.37 and 0.73 mg/ml; monomer to dimer.

For “PdGH110B (GH110 family α-1,3-galactosidase from Pseudoalteromonas distincta U2A) (enzyme)”, the stoichiometry N came out at 2.
